What was measured:
mice [1] = assay: Forced swimming test; format: in vivo
Description: (§1) SITH-1 having a glial fibrillary acidic protein (GFAP) promoter linked upstream of its open reading frame was injected into the brains of newborn mice using an adenovirus vector or a retrovirus vector. GFAP is a protein expressed specifically in glial cells such as astrocytes.
(§2) A tail suspension test and a forced swimming test were conducted to evaluate mental disorders; these tests are commonly used to observe patients with depression or manic-depressive illness. Specifically, mice into which SITH-1 was transferred using an adenovirus vector were subjected to a tail suspension test. […] Subsequently, mice into which SITH-1 was transferred using a retrovirus vector were subjected to a forced swimming test.

[2] = test system: astrocyte-like glial cell line (U373); assay: Fluorescent antibody staining of CAML in SITH-1-expressing U373 cells; format: cell-based; conditions: SITH-1 expressed in U373 vs untreated U373 cells
Source text: CAML is a protein that has been reported to show strong expression in lymphocytes and in a brain, and it is known that CAML has ability to increase an intracellular calcium concentration. Thus, in order to see whether the protein SITH-1 would be mediated by CAML to increase the intracellular calcium concentration, both an astrocyte-like glial cell line (U373) in which SITH-1 had been expressed and untreated U373 cells were stained by the fluorescent antibody technique using anti-SITH-1 antibodies and anti-CAML antibodies.

[3] = test system: astrocyte-like glial cell line (U373); assay: Intracellular calcium concentration measured with Fura2 after thapsigargin stimulation; format: cell-based; conditions: SITH-1 transferred via retrovirus vector into U373, thapsigargin (TG) stimulation, vs vector only
Description: In another experiment, two samples were prepared; one sample was prepared by transferring SITH-1 into an astrocyte-like glial cell line (U373) via a retrovirus vector, and the other sample was prepared by introducing only the vector into U373. Each sample was stimulated with thapsigargin (TG), and an intracellular calcium concentration was measured using Fura2.

[4] = biological target: T1, calcium-signal modulating cyclophilin ligand (CAML) (Homo sapiens, UniProt P49069); assay: Binding of SITH-1 to host protein (yeast two-hybrid, in vitro pull-down, co-precipitation); conditions: yeast two-hybrid with human fetal brain cDNA library; GST pull-down; co-precipitation in 293T cells
T1 construct: made in house; host or cells: yeast (two-hybrid prey from a human fetal brain cDNA library); E. coli (pull-down); 293T cells (transfected, co-precipitation)
T1 sequence (P49069 1-296): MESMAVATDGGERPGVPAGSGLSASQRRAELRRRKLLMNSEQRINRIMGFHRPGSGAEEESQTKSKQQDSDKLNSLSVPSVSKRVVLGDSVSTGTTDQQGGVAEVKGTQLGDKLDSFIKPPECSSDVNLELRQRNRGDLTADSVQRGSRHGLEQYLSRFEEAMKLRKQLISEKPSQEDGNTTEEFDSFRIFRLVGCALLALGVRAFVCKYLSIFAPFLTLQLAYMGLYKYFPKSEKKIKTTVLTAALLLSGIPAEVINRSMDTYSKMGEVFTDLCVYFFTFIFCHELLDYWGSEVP
Description: To study the function of the protein SITH-1, a host protein to which the protein SITH-1 would bind within cells was identified. This was performed by screening of a human fetal brain cDNA library by means of yeast two-hybrid assay with the protein SITH-1 used as a bait.

mice [5] = assay: Tail suspension test; format: in vivo; conditions: SITH-1 transferred using adenovirus vector, GFAP promoter, injected into brains of newborn mice
Description: as §1, §2

mice [6] = assay: Startle response (prepulse inhibition); format: in vivo; conditions: SITH-1 transferred using adenovirus vector
Description: as §1
The present inventors also measured a prepulse inhibition in order to check for any abnormality in a startle response, which abnormality is to be found in patients with manic-depressive illness and schizophrenia. Specifically, mice into which SITH-1 was transferred using the adenovirus vector were evaluated for a startle response by measuring the prepulse inhibition.

mice [7] = assay: Motor activity in terms of wheel running activity; format: in vivo; conditions: vs EGFP control mice
Description: Next, an open reading frame of SITH-1 was linked downstream of a GFAP promoter, and expressed in glial cells of mice using an adenovirus vector; three weeks later, the mice were measured for their motor activity in terms of wheel running activity.
Subsequently, an open reading frame of SITH-1 was linked downstream of a GFAP promoter, and expressed in glial cells of mice using a lentivirus vector; eight weeks later, the mice were measured for their motor activity in terms wheel running activity.

B1: SITH-1: protein expressed specifically during latent infection with HHV-6; approximately 17.5 kDa, 159 amino acids, SEQ ID NO: 1 (protein)
chain: MGYEEKVSATGKTRLKILACLIVLILAAAITMLTLEIISNQKRTTTDLEAVTVALKHVSTSLASCTESTTSVHTDSVTSQPTKNKESRKKIEGKSPSWVQALTTASGIILLFCIMMIFITCSWTTEKDTEKSEVQSYASSVETLDSLNEAIIPKTEMNV
modifications: Human herpesvirus 6
immobile time (mice [1]; retrovirus vector at HIGH titer, vs EGFP control mice): longer immobile time | immobile time (mice [1]; retrovirus vector at LOW titer): shorter immobile time | amount of CAML [2]: more CAML was found than in the untreated U373 cells | intracellular calcium concentration [3]: considerably higher | binding to CAML [4]: bind strongly | immobile time (mice [5]): markedly shorter immobile time | prepulse inhibition (mice [6]): markedly lower prepulse inhibition | motor activity (wheel running activity) (mice [7]; adenovirus vector, three weeks later): motor activity enhanced | motor activity (wheel running activity) (mice [7]; lentivirus vector, eight weeks later): motor activity suppressed

Reference: patent US10487118B2, “Factor involved in latent infection with herpes virus, and use thereof” (Virus Ikagaku Kenkyusho Inc., priority 2007, dated 2019)
